Laboratory results reported in US12606817B2, “Methods of creating and screening DNA-encoded libraries” (X-Chem, Inc., priority 2009, dated 2026).

Assay: solubility of headpiece in organic solvent (DMF)
Type: physicochemical
Details: DMF/water reaction mixture
Description: In order to prepare a “library of 1,” a model compound, 5-(4,6-dichlorotriazinyl-aminofluorescein) (DTAF; Anaspec) (FIG. 12), was coupled to the amino group of HP-1. DTAF structurally represents a trichlorotriazine scaffold with one amino compound coupled. To form a library, trichlorotriazine scaffolds can be derivatized with a diversity of building blocks at each of the three chlorine positions. DTAF also provides a fluorescent label to the model library. The reaction (10 μl) was set up as follows. To 5 μl of 400 μM HP-1 dissolved in water, 2 μl of 750 mM borate buffer, pH 9.5, and 1 μl of DMF were added. DTAF was dissolved in DMF to 50 mM and 2 μl was added to the reaction. Final concentrations of the HP-1 and DTAF were 200 μM and 10 mM, respectively, thus generating a 50-fold excess of DTAF. The final DMF concentration was 30%. […] The reaction was allowed to proceed at 4° C. for 16-20 hours. The reaction mixture was then diluted with water to 30-50 μl and desalted on a Zeba spin column (Pierce). No further purification was completed at this point.

HP-1: hairpin oligonucleotide headpiece (SEQ ID NO: 51) with amino-PEG2000 linker on C5-amino-modified dT (DNA TCCTGGCTGAGGCGAGAGTTTTTCTCTCGCCTCAGCCAGGACC; amino-PEG2000 linker on C5-amino-modified dT; modified_base (21)..(21) dT-C6-NH)
stayed soluble in up to % DMF: up to 90 % DMF
